Test results: the nanobody polyreactivity screen of Harvey et al. (2022)

assay: yeast display, Sf9 membrane polyspecificity reagent, FACS + sequencing; frameworks hold sequencing errors
In short: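 Nanobodies came from a synthetic yeast display library in Saccharomyces cerevisiae BJ5465, induced with galactose for 36–48 hours and stained for 1 hour at 4 °C with 10% biotinylated, detergent-solubilized Sf9 membrane reagent. Cells were enriched on streptavidin microbeads and then FACS-sorted, with low and high (top ~1%) gates set on anti-HA fluorescence for expression and streptavidin fluorescence for reagent binding. Each polyreactivity label reflects the gate a clone came from. Genes were amplified by colony PCR, sequenced by MiSeq 2 × 250 and filtered by CDR length.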

Sequence | polyreactivity (PSR sort gate)
QVQLVESGGGLVQAGGSHRLSCAASGLIIGYYDMGWYRQAPGQERELVAAITQSSGSTYYADSVKGRFTISRDNAKNTVYLQMNRLKREDTAVYYCARRKWKFADNYKLDYWGQGTQVTVSS | low polyreactivity
QVQLVESGGGLVQAGGSHRLSCAASGLTLYQYTMGWYRQAPGKERELVAAITTSGSTYYADSVKGRFTISRDNEKNTVYLQMNSLKPEDTAVYYCAAVVYYVDTLSGYRYGYDYWGQCTQVTVSS | low polyreactivity
QVQLVESGGGLVQAGGSHRLSCAASGRIFGRNAMGCYRQAPGKERELVATITSGGGTNYADSVKGRFTISRDNAKNTVYLQMNSLKPEDTAVYYCAATVAILRKFWMDYWGQGTQVTVSS | low polyreactivity
QVQLVESGGGLVQAGGSHRLSCAASGRIFRVYVMGWYRQAPGKEREFVAAISRRGSRTYADSVKGRFTISRDNAKNTVYLLMNSLKTEDTAVYYWAAECGYQAHPGQGDYWGQGTQVTVSS | high polyreactivity
QVQLVESGGGLVQAGGSHRLSCAASGRIFVGYAMGWYRQAPGKERELVAGISGGGRTNYADSVKGRFTISRDNAKNTVYLQMNSLKPEDTAVYYCIAGGSVWYRSQRGWKGYYNQMDYWGQGTQVTVSS | high polyreactivity
QVQLVESGGGLVQAGGSHRLSCAASGRIIESYAMGWYRQAPGKERELVAAISSNDGSTYYADSVKGRFTISRDNAKNTVYLQMNSLKPEDTAVYDCAAELGQVDYGGPSYDYWGQGTQVTVSS | low polyreactivity
QVQLVESGGGLVQAGGSHRLSCAASGRLFRYYDMGWYRQAPGKERELVARISSTGRTYADSVMGRFTISRDNAKNTVYLQMNSLKPVDTAVYYCAALFHTRGHSKYDYWGQGTQVTVSS | high polyreactivity
QVQLVESGGGLVQAGGSHRLSCAASGRTFGHNAMGWYRQAPGKEMEFVASIRSGGITDYADSVKGRFTISRDNAKNTVYLQMNSLKPEDTAVYYCAADVLDWYDLLRDDYWGQGTQVTVSS | low polyreactivity
QVQLVESGGGLVQAGGSHRLSCAASGRTFWYNAMGWYRQAPGKERELVAAITSGDSTNYADSVKGRFTISRDNAKNTVYLQMNSLKPEVTAAYYCAAEGRPNWYYWAEGYYWGQGTQVTVSS | high polyreactivity
QVQLVESGGGLVQAGGSHRLSCAASGRTFYINAMGWYRQAPGKERELVAAISIRGGGTYYADSVKGRFTISRDNAKNTVYLQMNSLKPEDTAVYYCAAEYTEGYTHDYWGQGTQVTVSS | low polyreactivity
QVQLVESGGGLVQAGGSHRLSCAASGRTFYYNAMGVYRQAPGKERELVAGITRSGSSTYYADSVKGRFTISRVNAKNTVYLQMNSLKPEDTAVYYCATRRSGYYSFYYWGQGTQVTVSS | high polyreactivity
QVQLVESGGGLVQAGGSHRLSCAASGSTFEYNDMGGNRQEQGKERELVAAISSGGDTNYADSVKGRFTISRDNAKNTVFLQMNSLKPEDTAVYYCAADDWSPYLCYYGYAGYYYCGQGTQVTVSS | low polyreactivity
QVQLVESGGGLVQAGGSHRLSCAASGSTFGDYAMGWYRQAPGKERELVAAISVRGGSTYYADSVKGRFTISRDNAKNTVYLQMNSLKPVVTAVYYCNKDLYRYPGYDYWGQGTQVTVSS | high polyreactivity
QVQLVESGGGLVQAGGSHRLSCAASGSTFIDYAMGWYRQAPGKERELVAAITNGGNTKYADSVKGRFTISRDNAKNTVYLQMNSLKPEDTAVYYCAREPSIFTPSYDYWGQGTQVTVSS | low polyreactivity
QVQLVESGGGLVQAGGSHRLSCAASGSTFRVYAMGGYRQAPGKERELVARISITGGTTRYADSVKGRFTISRDNAKNTVYLQMNSLKPEDTAVYYCNADYDWYYWYLYKYPFDYWGQGTQVTVSS | low polyreactivity
QVQLVESGGGLVQAGGSHRLSCAASGSTRYYMGWYRQAPGKEREFVARITWSGTRTYYADSVKGRFTISRDNAKNTVYLQMNSLKPEDTAVYYCNAGVVWGQGTQVTVSS | high polyreactivity

Sequence | polyreactivity (PSR sort gate)
QVQLVESGGGLVQAGGSHRLSCAASGYIFRYSTMGWYRQAPGKERELVAVITRGGSTYYADSVKGRFTISRDNAKNTVYLQMTSLNPEDTAVYYCAAVRTKVWRGPEMDYWGQCTQVTVSS | high polyreactivity
QVQLVESGGGLVQAGGSHRLSCAAYGRTFGVYAMGWYRQAPGKERELVAAISSRGGSTYYADSVKGRFTISRDNAKNSVYLQMNSLKPEDTAFYYCAAPWYQGLDYWGQGTQVTVSS | high polyreactivity
QVQLVESGGGLVQAGGSHRLSCAAYGSTFFPNCMGWYRQAPGKERELVAAITSGGSTYADSVKGRFTISRDNAKNTVYLQMNSLKQEDTAFYYCAADSRQGFLLYGYWGQATQVTVSS | low polyreactivity
QVQLVESGGGLVQAGGSHRLSCADSGFILAYYAMGWYRPAPGKERELVAAISIGSSTDYADSVKGRFTISRDNAKNTVYLQMNSLKPEDTAVYYCAARDYYYEYDYWGQGTQVTVSS | low polyreactivity
QVQLVESGGGLVQAGGSHRLSFAASGGIFRGYALGWNRQAPGKERELGATIRSSGRTNYADSVKGRFTIARDNAKNTVYLQMNCLKPDDTAVYYCNKRRWWQYDRWSDWVLGGDDYWGQGTQLTVSS | low polyreactivity
QVQLVESGGGLVQAGGSHRLSSAASGLTFGGNAMGWYRQAPGKERELVAGISSSGNTNYADSVKGRFTISRDNAKNTVYLQMNSLKPEDTAVYYCAADENITYPVYDMYDWGQGTQVTVSS | low polyreactivity
QVQLVESGGGLVQAGGSHRLSSAASGTTFYGNAMGWYRQAPGKERELVAAISQGGGRTYYADSVKGRFTISRDIAKNTVYLQMISLKPEDTAVYYCAADVWWYRLDFDYWGQGTQVTVSS | high polyreactivity
QVQLVESGGGLVQAGGSHRLTCAASGSTFFAYAIGCYRPAPGTERELVAAISSRGGRTYYADSVKGRFTISRDNAQNTVYLQMNSLKPEDTAVYYCAVGPGLAQSYDYWGQGTQVTVSS | high polyreactivity
QVQLVESGGGLVQAGGSHRVSCAASGSTFDRYTMGWYRQAPGTERELVAAISISGGSTYYADSVKGRFTISRDNAKNTVYVQMNSLKPEDTAVYYCAARLDTVTDYYYWGQGTQVNVSS | low polyreactivity
QVQLVESGGGLVQAGGSHSLRCAASGSIFYRYDRGWYRQAPGTARELVAAITRSGGSTYYADSVKGRFTISRDNAKNTVYLQMNSLKPEDTAVYFCNASIDRYRLLIFPRPYWKYAYWGQGTQVTVSS | low polyreactivity
QVQLVESGGGLVQAGGSIRLICAASGPIFSSYAIGCYRQAPGKERELVAAITSSGTSTYYADSVKGRFTISRDYAKNTVYVQMTSLKPEDTAVYYCAARRARTGDYWGQGTQVTLSS | high polyreactivity
QVQLVESGGGLVQAGGSIRLIWAASGSTVPSYTMGWYRQAPGKERELVAAISGSGGSTYYADSVKGRFTISRDNAKNTVYLQMNSLKPEDTAVYSCAADYRLQLSYAFGDDYWGQGPQVTVSS | low polyreactivity
QVQLVESGGGLVQAGGSIRLSCAASGITFGRNTMGWYRQAPAKERELVAAIDSGGNTYADSVKGRFTISRDNAKNTVYLQMNSLKPEDTAVYYCAVDGYYLYYDYDYWGQGTQVTVSS | low polyreactivity
QVQLVESGGGLVQAGGSIRLSCAASGRILYGNAMGWYRQAPGKEREFVAAITFRGGSTYYADSVKGRFTISRDNAKNTVYLQMNSLKPEDTAVYYCNARGHCGWGTSMYYWGQGTQVTVSS | high polyreactivity
QVQLVESGGGLVQAGGSIRLSCAASGRTFGQNPMGWYRQAPGKERELVAVITRGGSTNYADSVKGRFTISRDNAKNTVYLQMNSLKPEDTAVYYCAADYTAYGYDYWGQGTQVTVSS | low polyreactivity
QVQLVESGGGLVQAGGSIRLSCAASGRTFYPNAMGWYRQAPGKERELVAVISSGGNTDYADSVKGRFTISRDNAKNTVYLQMYSLKPEDTAVYYCNTDTTVVSHYRSYWWGAGYDYWGQGTQVTVSS | low polyreactivity
